The target of data set [1] is recombinant protein LmPDI-(His)6 produced in E. coli (Leishmania major). Briefly: cell-based or functional assay.
Data set [2] deals with T1, scrambled RNase A (reduced and denatured ribonuclease A), P61823.
T1 chain: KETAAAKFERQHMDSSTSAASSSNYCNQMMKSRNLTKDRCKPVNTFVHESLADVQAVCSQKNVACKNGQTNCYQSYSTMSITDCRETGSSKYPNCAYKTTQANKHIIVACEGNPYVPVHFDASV

Consider bacitracin (peptide), for which, in data set [1], the inhibition of LmPDI activity (scrambled RNase A reactivation test) was determined as 2 mM, the inhibition of rLmPDI activity (scrambled RNase reactivation) (% inhibition at 0.1 mM) was 50, the inhibition of rLmPDI activity (scrambled RNase reactivation) (% inhibition at 0.5 mM) was 70 and the inhibition of rLmPDI activity (scrambled RNase reactivation) (% inhibition at 2 mM) stood at 100.
The matching figures for zinc bacitracin (peptide): 2 mM, 50, 70 and 100.

B1: recombinant protein LmPDI-(His)6 produced in E. coli (protein)
chain: RESTAESLKLTKENFNETIAKSEIFLVKFYVDTCGYCQMLAPEWEKAANETIDNALMGEVDCHSQPELAANFSIRGYPTIILFRNGKEAEHYGGARTKDDIIKYIKANVGPAVTPASNAEEVTRAKEEHDVVCVGLTANNSTSLSTTLAEAAQSFRVSLKFFEAEPKLFPDEKPETIVVYRKGGEKEVYDGPMEVEKLTEFLQISRVAFGGEITPENYQYYSVIKRPVGWAMVKPNETASIELKESLTEVGKKMRSHMVVLWVNISKHPVWRDFGVPEDAKYPAFLAIHWGANYLHSTAEVVTRESLEKFILEFAAGRVEPTIKSLPVPEVETVDGKTTIVAKTMQKHLTSGKDMLILFFAPWCGHCKNFAPTFDKIAKEFDATDLIVAELDATANYVNSSTFTVTAFPTVFFVPNGGKPVVFEGERSFENVYEFVRKHVTTFKVSEKPANVTEEKKSEEENKSSKSNESNDSNESNVDKQDL
As to B1, the “reactivation of scrambled RNase A (RNase A activity at 296 nm)” value in data set [2] is given as “LmPDI is capable of restoring RNase A activity in a similar manner to that of bovine PDI”.

B2: bovine protein disulfide-isomerase (protein)
chain: APDEEDHVLVLHKGNFDEALAAHKYLLVEFYAPWCGHCKALAPEYAKAAGKLKAEGSEIRLAKVDATEESDLAQQYGVRGYPTIKFFKNGDTASPKEYTAGREADDIVNWLKKRTGPAASTLSDGAAAEALVESSEVAVIGFFKDMESDSAKQFFLAAEVIDDIPFGITSNSDVFSKYQLDKDGVVLFKKFDEGRNNFEGEVTKEKLLDFIKHNQLPLVIEFTEQTAPKIFGGEIKTHILLFLPKSVSDYEGKLSNFKKAAESFKGKILFIFIDSDHTDNQRILEFFGLKKEECPAVRLITLEEEMTKYKPESDELTAEKITEFCHRFLEGKIKPHLMSQELPDDWDKQPVKVLVGKNFEEVAFDEKKNVFVEFYAPWCGHCKQLAPIWDKLGETYKDHENIVIAKMDSTANEVEAVKVHSFPTLKFFPASADRTVIDYNGERTLDGFKKFLESGGQDGAGDDDDLEDLEEAEEPDLEEDDDQKAVKDEL
B2: the “reactivation of scrambled RNase A (RNase A activity at 296 nm)” value in data set [2] is “LmPDI is capable of restoring RNase A activity in a similar manner to that of bovine PDI, used as a control”.

The values above are taken from US20080199496A1.
